Experimental data reported in article doi:10.1101/2025.05.19.654868.

Assays:
[1] = molecular target: S16L/R18S/N21K (LSK) crosslinked (disulfide-stabilised) HIV-1 CA hexamer (HIV-1); assay: crystal structure; crosslinked CA hexamer 12 mg/ml mixed with 1-5 mM IP6; sitting-drop vapour diffusion, 17 °C, MORPHEUS I screen
[2] = molecular target: S16N/R18S/N21K (NSK) crosslinked (disulfide-stabilised) HIV-1 CA hexamer (HIV-1); assay: as above

Row | Substance | stoichiometry N [1] | stoichiometry N [2]
1 | S16L/R18S/N21K (LSK) crosslinked (disulfide-stabilised) HIV-1 CA hexamer (complex) | 6 | –
2 | S16N/R18S/N21K (NSK) crosslinked (disulfide-stabilised) HIV-1 CA hexamer (complex) | – | 6
